Source: the DeepSol protein solubility set

Experiment: soluble on expression in E. coli; label from the status in PepcDB or PDB records

| Sequence | soluble on expression in E. coli |
| --- | --- |
| MSLSERTFNWKNKDIRAQVDVVDSKLLPTLLLRNALVLNPYVKQWLKKNIWIYQDRIVYVGHELPNRAEEIHTIDCEGKYIVPGYIEPHAHPFQIYNPQTLAEYVSQYGTTTFVNDNLFLLLQSGKKKALTILNELKKQPVQYFWWSRYDLQTEVLNEDHVLPFDVRKQWIEHPDVIQGGEMTGWPRLVDGDDLMLHCMQATKKQRKRIEGHFPGASDKTLTKMKLFGADCDHEAMTGDEVMRRLELGYYVSLRNSSIRPDVRKILQELHEKGFRYYDHFFYTTDGATPNFYKGGMTNELIRIALEEGVPAIDAYNMASFNIAKYYQMDDYLGVVGPGRLASLNILEDPLNPNPVTVLSKGTILRENGCDLKAFTKTDWHKGGLVPLELSYDMTMDDLQFSMPMGVKMRNAVIMEPYMIEIDNSMEQLSFDHDESYLTMLDRHGKWRVNTMIKGFASSVQGFVSSFTTTGDIVAIGKNKADMLLAFARMKEIGGGIVLAENGNILHEIPLALCGCASSEAYEDVLEKEQKLRDLLTERGYEFCDPIYTLLFLQSTHLPYIRITPRGIFDVMKKTVLFPSIMREGHHHHHH | not soluble |
| MSLSFKNVNLIYADIATDSAETPETVLTQDDLEKEFEFWEATSLGLFDYMRKSRSKGFVLSLSGGADSSACAIMVAEMIRKGLKELGLTAFLQKSNMETLFDLPALQHLPFEEQAKKITAVFLTTAYQSTRNSGDETYTSAKTLAESIGATFYNWSVDEEIEQYKATIENVIERPLTWEKDDITLQNIQARGRAPIIWMLTNVKQALLITTSNRSEGDVGYATMDGDTAGGIAPIAGVDKDFIRSWLRWAEKNRNQHGLHIVNKLAPTAELRPSEYTQTDERDLMPYDVLARIERKAIKERLSPVQVYTALLTEGPYTKNEFKYWVKKFFRLWSINQWKRERLAPSFHMDDFNIDPRSWYRFPILSSGFAKELNDLDQEGHHHHHH | not soluble |
| MSLSHIHFLIALATLVPVTAPAMQVSTQAPLVDATGQTLHIRGVTWPGFDRAGLTAVGMRNNTLAQLLDRMQASDINAVRVPVCAAVLQRAPVAAAEVAGDSTLRGLDSLQLLDAVVHAATQRGMHVMFAFADGGCDDRAPLLGAQQQAWTRGLVTLARRYGGNANVLGIDLGSSGYRNASWAGNAADQNWNRVASRAAAMVLAQAPRWVVGVEGVGSNAVCSDPGRKALGSNLQPFACVPLDIAPRHLVLMPKLAGPDRDTTDAFAAPGFAQALPAMWQRDFGQFAIDHTVVPVSLGGGLGDGDPRDPAWQTALSGYLANTGMRSAFLGSWETSNANNGGLLAPDGSPRADKLLILRHAWGMLPVMPAIATATGDSTKNASGTKGWNSTFTGTATSTGSGYSGGAVLLDPIPSDAFITALNSTQMNFGGIKAALAGAYLEVTGPKGKTTVYVTDLYPDGASGGLDLSYNAFAAIGNLADGHIPISWKVVRAPITGNVQYRIKEGSSRYWAAIQVRHHIYPVVKLEVKQGSTWTSLPKTPYNHFVGTNLGNKPLSIRITDIRGKVIADKIPALPEYGGSAAYFEPGHVQFPEGHHHHHH | soluble |
| MSLSIFKRKTKQVNPFEQGWLTDLIDIHCHLLPAVDDGSKSIEETLSLIDLLEEIGVKQHILTPHIMEEYPSNDAIFLRARFEELLAAITPDKASRLRLAAEYMLDVAFLDRLAEPLLTLGDRYILVETSYMAPPIGLMGLLADLRFKGLSPVLAHPERYLYMEEKDYVAIKKQGVMFQLNLFSLFGAYNSSASEKAYALLEAGYYDLIGTDIHHLQPIARLLSEASLPPDLEGKIKSLVENNTRLFSEGHHHHHH | soluble |
| MSLSKIKEIRTKVYQWNGKTVPPQNNFCTNASDLLFEKSDAMGSFRFHEWLICEIETDDGVIGIGNAALAPQIAKKTIDTYLKPLVIGEDPFDYAYIWEKMYRRTHAWGRRGIGMVAISAIDIAIWDIMGKITNKPVFKLLGGRTKEKIPVYASKLYSQPIKALQKEAESYVKQGFKMFKMRFGWGPKDGPDGMKKNIALAEAVREVIGEDTDLMMECYMGWNLDYAKRMIPKLMKFNPRWLEEPVIADDIHGYEELNKMNMIPISGGEHEFNIFGFKQLLDLKAVSYIQYDNNRVGGFTAAQKINAIAEAHQVPVIPHAGQMHNYHLTMSNFNCPISEFFPVHDVEIGNELFYYIFEGDPAPKDGFIDLDDNKPGLGLTITDKYKSDFKIIEEGHHHHHH | soluble |
| MSLSKKPCAHIDCELEGGFERSIWIPVRVARLYVKNRPDLPCDWDNFREAVQLIERQCALTMVTEMLSRRDHATGEVCDKLARYGFHQPAIDFAVERATEYHFLDENRFCSYFIEERKRRGWGQRKIETELKRRHVVLDDIPGYPEDYFAVEDDLARASALLAKRRVPETRGFEKLVRFLMGKGFSYHIAADAVKARLDAEREEGHHHHHH | not soluble |
| MSLSKKSILLLCCSLCFISATKAVTPVRNVRNSQVNSKAKTERTKPSDSVRYISNMIADRLEFRNKISSEKEVRKAEYENRLAMEALNYPAIDLYGEDSWSEYVNPFVGAGTDVEIPNSYDIDCSSFVMPVEDKQVTSQFGYRRRFGRMHYGIDLSVNRGDTIRAAFDGKVRVRSYEARGYGYYIVLRHPNGLETVYGHMSRQLVDENQIVRAGQPIGLGGSTGRSTGPHLHFETRFMGIPINPSTIIDFDNGVPLRDIYTFKRGSNSRYAKASKTSSRYAKKGKKGRQASSPMTYRIKKGDTLETIAKRHGTSVQKLCATNGIGKSKILTPGKALRIKEGHHHHHH | soluble |
| MSLSKMEINKRALKENMALLACPICGEAFEFKEPQSFVCLEGHGFDIAKPGYVHLLKQAHKTKYDQALFESRKKVIASGFFEKLIERVTEIIAEKKKEQLVLYDAGCGEGSHLARVVSNLQATGVNVQAVGLDIAKEGVKQAARDYPGTSWTVADLANCPNQAETADVILNILSPSNYVEFKRLLKKDGFLLKVVPEANYLRELREFIYVDEKSSYSNESVTSRLAEKLSVEHVERVTYKAPIAKELFADFLEMTPLGWHIEADKKSELLGNPPEELTVDLQIIIANRAHLLEGHHHHHH | soluble |
| MSLSKNDHRITHNKSDKDNLDDDFSLFRDEVKGVKKLRQDTILHAPNRNPKQKEIRRTEREASDNDFYFSDEFMPHLTDEGPTRYARSDVSKYEVKRLRRGVYVPDVFLDMHGMTQQEAKRELGAMIAYCLKENVHCACVQHGIGKHILKQNVPLWLAQHPDVLAFHQAPLEFGGDGALLVLLSIPEKEGHHHHHH | soluble |
| MSLSKNPTSGFRLTHVGLRVTDIDRSVTFYTSVFGMKELGRMGLDTTTVVFLGYPDAADPQTQLFAREGVLELKSQRGMAESNDYPDFRFVKLAIGVPDMATAMEHIRSHNVKILKEAGVAQGSEVVSTFLGCDMPDKGFDRPLWEAVVAVPFVEDPDGYLIEIIPYEGHHHHHH | soluble |
| MSLSKQISNLNSSSNKPKILSLFSGCGGLDLGFHQAGCETVWANDFSHWACESFRKNIGDVIVEGDIEQINPNDPTIPDCDIILGGFPCQDFSMIWKQPGLEGERGNLYKSFLRFVNAKKPKVFVAENVKGLLTANKKKAIQQIITDFENCGYYVQAKLYNFAEFGVPQFRERVLIVGVRLDTGFDFRHPEPTHNETGENGLKPYVTAGQAISNIPQNASNNELLKISDKTRRMLELIPEGGNFTDIPKDHPLYVKGMISHVYRRMHRNEPSKTIIAAGGGGTWGYHFPEPRAFTNRERARLQSFPDDFEFVGSTTEVRRQIGNAVPPQGVVELAKSILPIFSDNYEKVDLHEKLVEEKEILFHDRLSKIRGGKEGHHHHHH | soluble |
| MSLSNKIFTHSLPMRYADFPTLVDALDYAALSSAGMNFYDRRCQLEDQLEYQTLKARAEAGAKRLLSLNLKKGDRVALIAETSSEFVEAFFACQYAGLVAVPLAIPMGVGQRDSWSAKLQGLLASCQPAAIITGDEWLPLVNAATHDNPELHVLSHAWFKALPEADVALQRPVPNDIAYLQYTSGSTRFPRGVIITHREVMANLRAISHDGIKLRPGDRCVSWLPFYHDMGLVGFLLTPVATQLSVDYLRTQDFAMRPLQWLKLISKNRGTVSVAPPFGYELCQRRVNEKDLAELDLSCWRVAGIGAEPISAEQLHQFAECFRQVNFDNKTFMPCYGLAENALAVSFSDEASGVVVNEVDRDILEYQGKAVAPGAETRAVSTFVNCGKALPEHGIEIRNEAGMPVAERVVGHICISGPSLMSGYFGDQVSQDEIAATGWLDTGDLGYLLDGYLYVTGRIKDLIIIRGRNIWPQDIEYIAEQEPEIHSGDAIAFVTAQEKIILQIQCRISDEERRGQLIHALAARIQSEFGVTAAIDLLPPHSIPRTSSGKPARAEAKKRYQKAYAASLNVQESLAEGHHHHHH | soluble |
| MSLSNYSTGELAKLCNVTTRTIQYYDRKGILKPQGFTEGKRRVYTEQQRQTLELILLLKDLGCALSDIDMLLKGEGTLKTLNTLLTMKQQEINQQVKQQQAVLNKIKNVQYYVNEGHHHHHH | not soluble |
